In patent publication US20190031764A1 (Janssen / Centocor, published 2019):
Substitutions are numbered along the chain they refer to. Numbers in names are those of the source.

T1: Biotinylated human TIM3-Fc fusion from R&D systems (human, UniProt Q8TDQ0 22-200, biotinylated (site not stated))
T1 construct: Bought reagent; also called CD366; not shown: Fc part of the bought fusion
T1 sequence (looked up): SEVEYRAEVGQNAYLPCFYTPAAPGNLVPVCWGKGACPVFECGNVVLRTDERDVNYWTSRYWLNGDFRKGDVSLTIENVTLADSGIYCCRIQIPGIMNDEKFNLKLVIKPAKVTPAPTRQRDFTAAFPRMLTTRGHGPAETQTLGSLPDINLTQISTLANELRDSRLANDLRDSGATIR

B1: S75D variant of PD1B244 (antibody, V domains shown)
VH: QVQLVQSGAEVKKPGSSVKVSCKASGGTFSSYAISWVRQAPGQGLEWMGGIIPIFDTANYAQKFQGRVTITADEDTSTAYMELSSLRSEDTAVYYCARPGLAAAYDTGSLDYWGQGTLVTVSS
VL: EIVLTQSPATLSLSPGERATLSCRASQSVRSYLAWYQQKPGQAPRLLIYDASNRATGIPARFSGSGSGTDFTLTISSLEPEDFAVYYCQQRNYWPLTFGQGTKVEIK
notes: Kabat position 74; also called PD1 S75D variant; PD1H170 S75D
B2: S84D variant of PD1B244 (antibody, V domains shown)
VH: B1 VH with D75S, S84D
VL: B1 VL
notes: Kabat position 82a; also called PD1 S84D variant; PD1H170 S84D
B3: S88D variant of PD1B244 (antibody, V domains shown)
VH: B1 VH with D75S, S88D
VL: B1 VL
notes: Kabat position 84; also called PD1 S88D variant; PD1H170 S88D
B4: A88D variant of TIMB337 (antibody, V domains shown)
VH: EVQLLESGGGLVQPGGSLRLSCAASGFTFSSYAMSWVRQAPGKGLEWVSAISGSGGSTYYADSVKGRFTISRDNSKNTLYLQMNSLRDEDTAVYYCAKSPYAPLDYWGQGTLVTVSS
VL: B1 VL with R30N, S31D, R91G, N92G, Y93H, W94A, L96I
notes: Kabat position 84; also called TIM3 A88D variant; TM3H24 A88D
B5: N84D variant of TIMB337 (antibody, V domains shown)
VH: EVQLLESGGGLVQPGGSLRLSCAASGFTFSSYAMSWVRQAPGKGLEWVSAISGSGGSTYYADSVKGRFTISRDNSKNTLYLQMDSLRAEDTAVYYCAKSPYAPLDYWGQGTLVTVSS
VL: B1 VL with R30N, S31D, R91G, N92G, Y93H, W94A, L96I
notes: Kabat position 82a; also called TIM3 N84D variant; TM3H24 N84D
B6: S75D variant of TIMB337 (antibody, V domains shown)
VH: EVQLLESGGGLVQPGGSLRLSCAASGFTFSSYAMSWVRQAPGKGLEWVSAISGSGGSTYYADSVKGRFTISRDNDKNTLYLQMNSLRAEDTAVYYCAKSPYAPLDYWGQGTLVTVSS
VL: B1 VL with R30N, S31D, R91G, N92G, Y93H, W94A, L96I
notes: Kabat position 74; also called TIM3 S75D variant; TM3H24 S75D

These binders were tested against T2, human PD1 antigen (human, UniProt Q15116 25-167, limits assumed) (assay: Ag Binding column; PD1 SPR).
T2 construct: Injected as analyte (100 nM-0.4 nM) in the ProteOn SPR assay; construct not described; also called CD279
T2 sequence (Q15116 25-167 limits assumed): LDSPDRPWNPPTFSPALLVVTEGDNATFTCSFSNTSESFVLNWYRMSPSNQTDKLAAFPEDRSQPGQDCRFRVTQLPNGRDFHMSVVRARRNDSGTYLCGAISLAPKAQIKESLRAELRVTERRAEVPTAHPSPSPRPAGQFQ
B1: binds.
B2: binds.
B3: binds.

What follows are binders tested against T1, Biotinylated human TIM3-Fc fusion from … (assay: Ag Binding column; TIM3-Fc ELISA).
B4: binds.
B5: binds.
B6: binds.
